Experimental data taken from patent publication US6828106.

Target: T1, reporter peptide (Example 9, TEV) (not fully specified)
T1 chain: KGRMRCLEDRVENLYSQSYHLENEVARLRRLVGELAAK

B1: TEV (Tobacco Etch Virus) protease (protein)
chain: GESLFKGPRDYNPISSTICHLTNESDGHTTSLYGIGFGPFIITNKHLFRRNNGTLLVQSLHGVFKVKNTTTLQQHLIDGRDMIIIRMPKDFPPFPQKLKFREPQREERICLVTTNFQTKSMSSMVSDTSCTFPSSDGIFWKHWIQTKDGQCGSPLVSTRDGFIVGIHSASNFTNTNNYFTSVPKNFMELLTNQEAQQWVSGWRLNADSVLWGGHKVFMSKPEEPFQPVKEATQLMNELVYSQ
For B1, the “Km of TEV protease by FP analysis” value was 36 µM and the “Km of TEV protease by FRET analysis” value was 36 µM.
